The chains are these.
B1: NP_015628.1 (parent)
chain: EQRNSRWNTVLRAVKAKTHHLEP
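Further: lentivirally expressed fusion library, cells FACS-sorted into six equal-sized GFP/DsRed ratio bins, PSI computed from sequencing read fractions per bin weighted by bin number.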

In the series the parent is B1. As to the kind of experiment: protein stability index of a GFP-peptide fusion (GPS, HEK-293T) (PSI 1-6); higher = more stable. Particulars: c terminus: native.
For EQRNSRWNTVLRAVKALTHHLEP, the protein stability index was 2.62.
Regarding EQRNSRWNTVLRAVKAWTHHLEP, the protein stability index was determined as 2.62.
Next, EQRNSRWNTVLRAVKAPTHHLEP: 2.96; EQRNSRWNTVLRAVKAKTTHLEP: 3.74; EQRNSRWNTVLRAVKAKTAHLEP: 3.34.
For EQRNSRWNTVLRAVKAKTKHLEP, the protein stability index is 3.57.
The value for EQRNSRWNTVLRAVKAKTIHLEP was 3.44.
As to EQRNSRWNTVLRAVKAKTQHLEP, the protein stability index turned out to be 3.73.
Next, EQRNSRWNTVLRAVKAKTWHLEP: 3.54; EQRNSRWNTVLRAVKAKTLHLEP: 3.43; EQRNSRWNTVLRAVKAKTPHLEP: 2.65.
On to EQRNSRWNTVLRAVKAKTDHLEP, for which the protein stability index was found to be 3.81.
In the case of EQRNSRWPTVLRAVKAKTHHLEP, the protein stability index worked out at 3.65.
With EQRNSRWETVLRAVKAKTHHLEP, the protein stability index turned out to be 1.92.
For the variant EQRNSRWATVLRAVKAKTHHLEP, the protein stability index was 1.94.
Turning to EQRNSRWLTVLRAVKAKTHHLEP, the protein stability index was 2.29.
For the variant EQRNSRWQTVLRAVKAKTHHLEP, the protein stability index amounted to 2.06.
Regarding EQRNSRWSTVLRAVKAKTHHLEP, the protein stability index is 2.28.
Next, EQRNSRWHTVLRAVKAKTHHLEP: 2.64; EQRNSRWVTVLRAVKAKTHHLEP: 3; EQRNSRWDTVLRAVKAKTHHLEP: 2.52.
In the case of TQRNSRWNTVLRAVKAKTHHLEP, the protein stability index is 2.27.
Regarding KQRNSRWNTVLRAVKAKTHHLEP, the protein stability index came out at 2.12.
For the variant YQRNSRWNTVLRAVKAKTHHLEP, the protein stability index turned out to be 3.33.
The value for LQRNSRWNTVLRAVKAKTHHLEP was 2.87; that for RQRNSRWNTVLRAVKAKTHHLEP was 3.15.
As for GQRNSRWNTVLRAVKAKTHHLEP, the protein stability index is 2.9.
For the variant CQRNSRWNTVLRAVKAKTHHLEP, the protein stability index is 2.79.
As to NQRNSRWNTVLRAVKAKTHHLEP, the protein stability index turned out to be 2.91.
For the variant EQRNSRWNTVLRAVKYKTHHLEP, the protein stability index was found to be 2.78.
As for EQRNSRWNTVLRAVKGKTHHLEP, the protein stability index was 2.77.
As for EQRNSRWNTVLRAVKPKTHHLEP, the protein stability index came out at 2.78.
Next, EQRNSRWNTVLRAVKHKTHHLEP: 2.98.
As to EQRNSRWNTVLRAVKVKTHHLEP, the protein stability index came out at 2.95.
Consider EQRNSRWNTVLRAVKQKTHHLEP, for which the protein stability index is 2.99.
Next, EQRNSRWNTVLRAVKFKTHHLEP: 3.02; EQRNSRWNTVLRAVKIKTHHLEP: 2.73; EQRMSRWNTVLRAVKAKTHHLEP: 2.94.
EQRASRWNTVLRAVKAKTHHLEP: the protein stability index worked out at 2.5.
As to EQRPSRWNTVLRAVKAKTHHLEP, the protein stability index worked out at 2.67.
With EQRDSRWNTVLRAVKAKTHHLEP, the protein stability index came to 3.22.
On to EQRVSRWNTVLRAVKAKTHHLEP, for which the protein stability index turned out to be 2.96.
Next, EQRYSRWNTVLRAVKAKTHHLEP: 3.16; EQRCSRWNTVLRAVKAKTHHLEP: 2.73.
For the variant EQRFSRWNTVLRAVKAKTHHLEP, the protein stability index worked out at 3.17.
With EQRLSRWNTVLRAVKAKTHHLEP, the protein stability index was found to be 2.87.
The value for EQRSSRWNTVLRAVKAKTHHLEP was 3.05; that for EQRESRWNTVLRAVKAKTHHLEP was 3.37; that for EQRTSRWNTVLRAVKAKTHHLEP was 3.23.
As for EQRNSRWNTVLYAVKAKTHHLEP, the protein stability index was 2.5.
The value for EQRNSRWNTVLHAVKAKTHHLEP was 2.98.
On to EQRNSRWNTVLTAVKAKTHHLEP, for which the protein stability index is 3.07.
The value for EQRNSRWNTVLMAVKAKTHHLEP was 2.8; that for EQRNSRWNTVLQAVKAKTHHLEP was 2.71; that for EQRNSRWNTVLAAVKAKTHHLEP was 2.77.
Consider EQRNSRWNTVLIAVKAKTHHLEP, for which the protein stability index worked out at 2.46.
Regarding EQRNSRWNTVLSAVKAKTHHLEP, the protein stability index was 2.57.
Next, EQRNSRWNTVLFAVKAKTHHLEP: 2.41; EQRNSRWNTVLRAVKAKTHHLCP: 2.63.
For EQRNSRWNTVLRAVKAKTHHLAP, the protein stability index was 2.87.
Take EQRNSRWNTVLRAVKAKTHHLWP: the protein stability index came to 3.6.
Turning to EQRNSRWNTVLRAVKAKTHHLHP, the protein stability index was found to be 3.45.
Take EQRNSRWNTVLRAVKAKTHHLVP: the protein stability index was 3.49.
Turning to EQRNSRWNTVLRAVKAKTHHLPP, the protein stability index was 4.21.
In the case of EQRNSRWNTVLRAVKAKTHHLDP, the protein stability index turned out to be 3.21.
Consider EQRNSRWNTVLRAVKAKTHHLMP, for which the protein stability index worked out at 2.84.
The value for EQRNSRWNTQLRAVKAKTHHLEP was 3.25.
Regarding EQRNSRWNTALRAVKAKTHHLEP, the protein stability index came to 3.52.
For EQRNSRWNTPLRAVKAKTHHLEP, the protein stability index was 4.13.
For EQRNSRWNTELRAVKAKTHHLEP, the protein stability index was found to be 3.92.
On to EQRNSRWNTFLRAVKAKTHHLEP, for which the protein stability index came out at 2.74.
Regarding EQRNSRWNTYLRAVKAKTHHLEP, the protein stability index stood at 2.53.
Next, EQRNSRWNFVLRAVKAKTHHLEP: 1.99.
EQRNSRWNIVLRAVKAKTHHLEP: the protein stability index turned out to be 3.02.
In the case of EQRNSRWNEVLRAVKAKTHHLEP, the protein stability index was determined as 2.38.
Take EQRNSRWNYVLRAVKAKTHHLEP: the protein stability index amounted to 2.23.
Turning to EQRNSRWNLVLRAVKAKTHHLEP, the protein stability index is 2.91.
For the variant EQRNSRWNSVLRAVKAKTHHLEP, the protein stability index turned out to be 3.31.
Turning to EQRNSRWNCVLRAVKAKTHHLEP, the protein stability index came to 3.
As to EQRNSRWNHVLRAVKAKTHHLEP, the protein stability index amounted to 2.38.
EQRNSRWNVVLRAVKAKTHHLEP: the protein stability index was determined as 2.74.
With EQRNSRWNNVLRAVKAKTHHLEP, the protein stability index stood at 3.3.
As for EQRNSRWNPVLRAVKAKTHHLEP, the protein stability index is 4.6.
Regarding EQRNSRWNWVLRAVKAKTHHLEP, the protein stability index stood at 2.3.
Next, EQRNSRWNRVLRAVKAKTHHLEP: 4.1.
For the variant EQANSRWNTVLRAVKAKTHHLEP, the protein stability index worked out at 3.25.
Regarding EQCNSRWNTVLRAVKAKTHHLEP, the protein stability index came out at 3.3.
Take EQQNSRWNTVLRAVKAKTHHLEP: the protein stability index stood at 2.71.
In the case of EQWNSRWNTVLRAVKAKTHHLEP, the protein stability index stood at 2.7.
Next, EQFNSRWNTVLRAVKAKTHHLEP: 3.35.
As for EQINSRWNTVLRAVKAKTHHLEP, the protein stability index worked out at 3.09.
Next, EQRNSRWNTVLRAVKAKTHHREP: 2.08; EQRNSRWNTVLRAVKAKTHHEEP: 4.79; EQRNSRWNTVLRAVKAKTHHIEP: 3.59.
As for EQRNSRWNTVLRAVKAKTHHMEP, the protein stability index is 3.01.
Regarding EQRNSRWNTVLRAVKAKTHHYEP, the protein stability index worked out at 3.81.
Turning to EQRNSRWNTVLRAVKAKTHHGEP, the protein stability index was determined as 3.67.

These data come from the supplement of paper PMC10567573.
